The target of assay [1] is T1, VZV glycoprotein E, full-length gE ectodomain (gE_FL) (Varicella-zoster virus; strain not …, UniProt P09259).
T1 construct: Varicella zoster virus glycoprotein E (gE), 'full-length gE ectodomain', includes the disordered N-terminal region (residues 1-115); The construct used in the HPLC-SEC binning is only called 'VZV gE'; also called FL gE; VZV gE; source: Expi293 cells, transfected, purified from culture supernatant (HisTrap, Superdex 200 SEC)
Nature of the assay: SEC; HPLC-SEC epitope binning: VZV gE mixed with primary Fab at mass ratio 1:3 for 10 min at room temperature, then with secondary Fab at the same ratio; Superdex 200 Increase 3.2/300. The following applies: both partners purified. On the technique in general: In gel filtration, larger molecules generally elute earlier.

The target of assay [2] is T1, VZV glycoprotein E, full-length gE …. The experiment in a line: BLI; Octet Red96; Fabs loaded onto FAB2G biosensors (0.5 to 1.0 nm), gE as analyte at 25 nM to 1.6 nM; 1 x PBS with 1% BSA. The following applies: both partners purified. For orientation: In BLI a coated tip is dipped into the sample, and binding shifts an interference pattern.

T1 sequence (P09259 whole entry, looked up, the tested form may be a part): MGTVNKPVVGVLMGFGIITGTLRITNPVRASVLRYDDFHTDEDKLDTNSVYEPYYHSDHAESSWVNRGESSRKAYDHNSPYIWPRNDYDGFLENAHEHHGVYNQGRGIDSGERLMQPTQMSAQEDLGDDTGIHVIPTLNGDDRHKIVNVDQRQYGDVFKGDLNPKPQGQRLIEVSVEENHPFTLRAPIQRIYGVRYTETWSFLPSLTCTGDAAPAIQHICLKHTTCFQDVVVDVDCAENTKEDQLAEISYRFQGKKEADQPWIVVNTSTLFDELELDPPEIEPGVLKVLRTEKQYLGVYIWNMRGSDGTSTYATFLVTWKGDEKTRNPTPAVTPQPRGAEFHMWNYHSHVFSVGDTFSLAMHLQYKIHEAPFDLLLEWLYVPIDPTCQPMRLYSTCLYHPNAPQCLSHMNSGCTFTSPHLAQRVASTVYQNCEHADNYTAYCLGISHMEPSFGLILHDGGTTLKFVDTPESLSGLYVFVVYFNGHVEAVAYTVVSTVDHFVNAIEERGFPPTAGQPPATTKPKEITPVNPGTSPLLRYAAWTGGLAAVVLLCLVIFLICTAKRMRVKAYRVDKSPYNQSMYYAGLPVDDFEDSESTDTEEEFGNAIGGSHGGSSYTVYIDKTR

B1: Fab 1E8 (recombinant Fab of human anti-gE antibody 1E8, elicited by ZVL vaccination) (Fab, V domains shown)
VH: QVQLQESGPGLVRPSQTLSLTCTVSGGSITSGSFYWSWVRQSAGKGLEWIGRIFKTGSTTYKPSLKSRVTMSVDTSKNQFSLKLSSVTATDTAVYFCARAPFYNDFSGYSYYFDYWGQGTLVTVSS
VL: QSVLTQPPSASGTPGQRVTISCSGSSSDIGPNTVHWYRQVPGTAPTLLIYSDNQRPSGVPARFSGSRSGTSASLAISGLQSEDEAIYYCAAWDDSLNPLYVFGTGTKVTVL
notes: source: HEK293 Expi cells, transient, purified (StrepTrap HP, SEC)
Regarding B1, the binding result in assay [1] is “binds”.

B2: Fab 1E3 (recombinant Fab of human anti-gE antibody 1E3, elicited by ZVL vaccination) (Fab, V domains shown)
VH: QVQLQESGPGLVKPSQTLSLTCTVSGGSISSNDYYWTWIRQSPGKGLEWIGFISYNGDTYYNPSLKRRGTISVDTSKIQFSLRLSSVTAADTAVYYCARVRTSSTTSYYFDYWGQGTLVTVSS
VL: DIQMTQSPSSLSASVGDRVTITCRASQGIRNYLNWYQQKPGKAPMLLIYGASSLQNGVPSRFSGSGSGTEFTLTISSLQPEDFATYYCQQSYRTLTFGPGTKVDIK
notes: also called 1E3 Fab; source: HEK293 Expi cells, transient, purified (StrepTrap HP, SEC)
For the molecule B2, in assay [2], the binding result was “binds”.

B3: Fab 1A2 (recombinant Fab of human anti-gE antibody 1A2, elicited by ZVL vaccination) (Fab, V domains shown)
VH: EVQLVQSGAEMKKPGASVKVSCKTSGYVFNEYYIHWVRQAPGQGLEWLGRINPNSGDANYAPKFQGRVTLTRDTSIRTYFMELNRLRSDDTAVYYCARIMYFEYDSWSDYWGQGTLVTVSS
VL: DIQMTQSPSSLSASVGDRVTITCRASQSIRSNLNWYQQKPGKAPNVLIYATSSLQSGVPSRFSGSGSGTDFTLTIRSLQPEDFATYYCQQSYSLPWTFGQGTKVEIK
notes: as for B1
For the molecule B3, the binding result in assay [2] is listed as “binds”.

B4: Fab 5A2 (recombinant Fab of human anti-gE antibody 5A2, elicited by ZVL vaccination) (Fab, V domains shown)
VH: QVQLQESGPGLVKPSETLSLTCIVSGGSISRYYWSWIRQPPGRGLEWIGNIYYTGTTNYNPSLQSRVTISLDTSKNQFSLRLTSVTAADTAVYYCARIGGVSFGERPIDYWGQGTLVTVSS
VL: DIQMTQSPSSLSASVGDRVTITCRASQTISTYLNWYQQKPGKAPKLLIYAASTLQSGVPSRFSGSGSGTDFTLTITSLQPEDFAAYYCQQSYSIPLTFGGGTKVEIK
notes: also called 5A2 Fab; source: HEK293 Expi cells, transient, purified (StrepTrap HP, SEC)
Take B4: in assay [2], the binding result is listed as “binds”.

The values are drawn from article PMC11511291, “Structures of the Varicella Zoster Virus Glycoprotein E and Epitope Mapping of Vaccine-Elicited Antibodies” (Vaccines, 2024).
